Measured values as given in the supplement of paper PMC6757056.
± gives the standard deviation of the averaged measurements.

B1: library; a variant is named by its letters at N, in order (parent)
chain: GCUGUCACCGGAAUACCAGCAUCGUCUUGAUGCCCUUGGAAGUCCGGUCUGAUGAGUCCNNNNNGGACGAAACAGC

Key:
[1] = variants of: B1; test: FACS-Seq fitted mean relative fluorescence mCherry/BFP without ligand (log10 relative fluorescence); higher = higher reporter protein expression; conditions: HEK293T, ligand present: no
Experimental: (§1)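 Hammerhead (sTRSV) ribozyme switch libraries with a ligand aptamer grafted on stem I and a randomized N4-6 loop II, cloned into the 3' UTR of mCherry and transiently transfected into HEK293T cells; RNA-Seq 72 h post transfection with ligand added 1 h before transfection; RNA read count / plasmid DNA read count normalized to the non-cleaving sTRSVctl (x100), log10; sequences with >100 DNA reads. FACS-Seq: lentiviral library sorted into 6 bins after 48 h ligand, log-normal fit mean of mCherry/BFP scaled to controls. Printed sequences are partial switch sequences.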

[2] = variants of: B1; test: normalized RNA/DNA level with ligand (relative to sTRSVctl = 100) (log10 (% of sTRSVctl)); higher = less ribozyme self-cleavage, higher mRNA level; conditions: ligand concentration (+) RNA-Seq: 5 mM, HEK293T, reporter: mCherry (pCS4076), ligand present: yes
Experimental: as §1

[3] = variants of: B1; test: normalized RNA/DNA level without ligand (relative to sTRSVctl = 100) (log10 (% of sTRSVctl)); higher = less ribozyme self-cleavage, higher mRNA level; conditions: HEK293T, reporter: mCherry (pCS4076), ligand present: no
Experimental: as §1

[4] = variants of: B1; test: FACS-Seq fitted mean relative fluorescence mCherry/BFP with ligand (log10 relative fluorescence); ligand concentration (+) FACS-Seq: 1 mM; higher = higher reporter protein expression; conditions: HEK293T, ligand present: yes
Experimental: as §1

| Variant | FACS-Seq fitted mean (log10) [1] | normalized RNA/DNA level with ligand (log10) [2] | normalized RNA/DNA level without ligand (log10) [3] | FACS-Seq fitted mean (log10) [4] |
| --- | --- | --- | --- | --- |
| AAGUA | 0.448 ± 0.1 | 2 ± 0.064 | 1.63 ± 0.12 | 0.35 ± 0.062 |
| AAGUG | 0.678 ± 0.085 | 1.96 ± 0.04 | 1.79 ± 0.074 | 0.763 ± 0.076 |
| AAGUU | 0.341 ± 0.057 | 1.939 ± 0.0073 | 1.75 ± 0.073 | 0.39 ± 0.035 |
| AAGUC | 0.771 ± 0.032 | 1.96 ± 0.045 | 1.91 ± 0.1 | 0.866 ± 0.079 |
| UCAAC | 0.851 ± 0.1 | 1.89 ± 0.03 | 1.79 ± 0.049 | 0.879 ± 0.062 |
| UCAAG | 0.7373 ± 0.0072 | 2.034 ± 0.0095 | 1.79 ± 0.16 | 0.974 ± 0.053 |
| UCAAU | 0.686 ± 0.07 | 2 ± 0.028 | 1.83 ± 0.095 | 0.789 ± 0.093 |
| UCAAA | -0.0221 ± 0.095 | 1.97 ± 0.042 | 1.3 ± 0.091 | 0.459 ± 0.023 |
| UAGUC | 0.521 ± 0.015 | 1.925 ± 0.01 | 1.88 ± 0.067 | 0.4472 ± 0.0043 |
| UAGUA | 0.245 ± 0.011 | 1.87 ± 0.019 | 1.45 ± 0.074 | 0.503 ± 0.008 |
| AAUCC | 0.844 ± 0.012 | 2.04 ± 0.052 | 1.95 ± 0.07 | 0.808 ± 0.05 |
| AAUCA | 0.1911 ± 0.00077 | 1.9026 ± 0.0018 | 1.7 ± 0.029 | 0.221 ± 0.08 |
| AAUCG | 0.941 ± 0.16 | 2.06 ± 0.06 | 1.87 ± 0.1 | 0.953 ± 0.04 |
| AAUCU | 0.634 ± 0.065 | 1.94 ± 0.026 | 1.87 ± 0.026 | 0.57 ± 0.049 |
| CAUAU | 0.397 ± 0.059 | 2.02 ± 0.043 | 1.76 ± 0.21 | 0.362 ± 0.069 |
| CAUAA | -0.291 ± 0.12 | 1.88 ± 0.0023 | 1.06 ± 0.47 | 0.446 ± 0.011 |
| CAUAC | 0.865 ± 0.024 | 1.917 ± 0.0021 | 1.8 ± 0.092 | 0.996 ± 0.019 |
| AAGGU | 0.228 ± 0.0068 | 1.94 ± 0.047 | 1.72 ± 0.044 | 0.445 ± 0.067 |
| UCAUG | 0.358 ± 0.073 | 1.9 ± 0.12 | 1.89 ± 0.091 | 0.349 ± 0.033 |
| UCAUU | 0.822 ± 0.046 | 2.03 ± 0.045 | 1.815 ± 0.0057 | 0.906 ± 0.071 |
| UCCGA | 0.81 ± 0.1 | 2.12 ± 0.14 | 1.946 ± 0.0097 | 0.6689 ± 0.002 |
| UCCGG | 1.14 ± 0.16 | 1.97 ± 0.12 | 2.05 ± 0.077 | 1.02 ± 0.03 |
| UCCGU | 0.694 ± 0.021 | 2.029 ± 0.013 | 2.03 ± 0.14 | 0.619 ± 0.023 |
| GCACU | 1.01 ± 0.018 | 1.966 ± 0.019 | 1.86 ± 0.022 | 1 ± 0.083 |

| Variant | FACS-Seq fitted mean (log10) [1] | normalized RNA/DNA level with ligand (log10) [2] | normalized RNA/DNA level without ligand (log10) [3] | FACS-Seq fitted mean (log10) [4] |
| --- | --- | --- | --- | --- |
| GAUAU | 0.781 ± 0.093 | 1.946 ± 0.0078 | 1.75 ± 0.039 | 0.8102 ± 0.0061 |
| ACAGU | 0.512 ± 0.024 | 1.94 ± 0.057 | 1.65 ± 0.095 | 0.73 ± 0.011 |
| ACAGC | 1 ± 0.1 | 1.97 ± 0.018 | 1.95 ± 0.053 | 0.971 ± 0.05 |
| ACAGA | 0.413 ± 0.11 | 1.96 ± 0.064 | 1.54 ± 0.035 | 0.638 ± 0.062 |
| ACAGG | 0.315 ± 0.055 | 2 ± 0.057 | 1.78 ± 0.045 | 0.357 ± 0.0097 |
| GCAAG | 0.716 ± 0.087 | 1.97 ± 0.14 | 1.66 ± 0.062 | 0.9 ± 0.035 |
| GCAAC | 0.716 ± 0.09 | 1.93 ± 0.066 | 1.826 ± 0.0042 | 0.739 ± 0.094 |
| GCAAU | 1.11 ± 0.06 | 1.96 ± 0.017 | 1.78 ± 0.027 | 1.06 ± 0.046 |
| CCCGU | 0.812 ± 0.08 | 1.91 ± 0.23 | 1.894 ± 0.014 | 0.82 ± 0.087 |
| CCCGC | 1.3 ± 0.15 | 2.02 ± 0.021 | 2.088 ± 0.019 | 1.05 ± 0.028 |
| CCCGA | 0.977 ± 0.19 | 1.956 ± 0.018 | 1.93 ± 0.077 | 0.827 ± 0.058 |
| CAUUA | 0.275 ± 0.06 | 1.851 ± 0.011 | 1.22 ± 0.14 | 0.761 ± 0.12 |
| CAUUU | 0.805 ± 0.079 | 2.1059 ± 0.00056 | 1.74 ± 0.12 | 0.945 ± 0.13 |
| AAUUU | 0.603 ± 0.084 | 1.98 ± 0.021 | 1.915 ± 0.0083 | 0.6371 ± 0.0013 |
| AAUUC | 0.308 ± 0.094 | 1.981 ± 0.015 | 1.96 ± 0.033 | 0.335 ± 0.031 |
| AAUUG | 0.229 ± 0.1 | 2.02 ± 0.12 | 1.75 ± 0.15 | 0.292 ± 0.011 |
| AAUUA | 0.392 ± 0.024 | 1.973 ± 0.0011 | 1.63 ± 0.13 | 0.477 ± 0.006 |
| CCACA | 0.241 ± 0.0081 | 1.97 ± 0.022 | 1.75 ± 0.096 | 0.47 ± 0.086 |
| CCACU | 0.682 ± 0.012 | 2.01 ± 0.059 | 1.76 ± 0.16 | 0.818 ± 0.014 |
| CCACC | 0.788 ± 0.091 | 1.99 ± 0.087 | 1.97 ± 0.061 | 0.739 ± 0.01 |
| ACAUG | 0.862 ± 0.2 | 1.913 ± 0.0094 | 1.81 ± 0.02 | 1.01 ± 0.017 |
| ACAUU | 1.04 ± 0.16 | 2 ± 0.036 | 1.85 ± 0.042 | 1.15 ± 0.18 |
| ACAUA | 0.248 ± 0.061 | 1.94 ± 0.1 | 1.72 ± 0.045 | 0.427 ± 0.032 |
| ACAUC | 0.595 ± 0.053 | 2 ± 0.098 | 1.94 ± 0.03 | 0.599 ± 0.055 |

| Variant | FACS-Seq fitted mean (log10) [1] | normalized RNA/DNA level with ligand (log10) [2] | normalized RNA/DNA level without ligand (log10) [3] | FACS-Seq fitted mean (log10) [4] |
| --- | --- | --- | --- | --- |
| CCAUA | 0.864 ± 0.14 | 1.95 ± 0.036 | 1.5 ± 0.14 | 1.06 ± 0.12 |
| CCAUU | 0.558 ± 0.021 | 1.983 ± 0.0031 | 1.75 ± 0.049 | 0.688 ± 0.011 |
| GAUCG | 1.12 ± 0.081 | 1.9 ± 0.031 | 1.78 ± 0.05 | 1.17 ± 0.094 |
| GAUCU | 0.704 ± 0.15 | 1.98 ± 0.055 | 1.85 ± 0.03 | 0.81 ± 0.17 |
| ACCUG | 1.02 ± 0.063 | 2.01 ± 0.025 | 1.89 ± 0.043 | 0.898 ± 0.044 |
| ACCUA | 1.18 ± 0.18 | 1.94 ± 0.021 | 1.88 ± 0.16 | 1.136 ± 0.0083 |
| ACCUC | 0.785 ± 0.011 | 2.04 ± 0.034 | 1.98 ± 0.042 | 0.737 ± 0.044 |
| AAUGC | 0.537 ± 0.0095 | 2 ± 0.06 | 1.89 ± 0.025 | 0.692 ± 0.11 |
| AAUGA | 0.467 ± 0.024 | 1.964 ± 0.0034 | 1.46 ± 0.08 | 0.691 ± 0.086 |
| AAUGU | 0.7078 ± 0.0026 | 1.99 ± 0.056 | 1.77 ± 0.23 | 0.788 ± 0.011 |
| AAUGG | 0.773 ± 0.076 | 2.06 ± 0.078 | 1.73 ± 0.094 | 0.962 ± 0.016 |
| GCCAU | 0.669 ± 0.019 | 1.99 ± 0.077 | 1.88 ± 0.12 | 0.779 ± 0.05 |
| CCAAA | 0.24 ± 0.12 | 1.97 ± 0.051 | 1.48 ± 0.06 | 0.619 ± 0.23 |
| CCAAU | 0.688 ± 0.1 | 1.95 ± 0.058 | 1.64 ± 0.14 | 0.7987 ± 0.0017 |
| CCAAC | 0.72 ± 0.09 | 1.952 ± 0.012 | 1.92 ± 0.069 | 0.767 ± 0.018 |
| UCCAC | 0.712 ± 0.067 | 2.05 ± 0.04 | 1.95 ± 0.12 | 0.737 ± 0.036 |
| UCCAG | 0.956 ± 0.042 | 2.01 ± 0.07 | 1.92 ± 0.1 | 1.07 ± 0.13 |
| UCCAA | 0.973 ± 0.14 | 2.04 ± 0.078 | 1.84 ± 0.09 | 0.912 ± 0.053 |
| UCCAU | 1.01 ± 0.016 | 2.012 ± 0.019 | 1.96 ± 0.054 | 1.05 ± 0.11 |
| GCCCU | 1.072 ± 0.0027 | 1.97 ± 0.025 | 1.98 ± 0.057 | 0.918 ± 0.027 |
| ACAAG | 0.857 ± 0.14 | 1.99 ± 0.033 | 1.81 ± 0.12 | 0.8889 ± 0.0072 |
| ACAAA | 0.425 ± 0.062 | 2 ± 0.045 | 1.44 ± 0.11 | 0.7048 ± 0.0042 |
| ACAAU | 0.476 ± 0.2 | 1.99 ± 0.077 | 1.75 ± 0.096 | 0.44 ± 0.037 |
